Test system: His6-CusR (Pseudomonas paraeruginosa IHMA87)
Test: EMSA
Details: apparent equilibrium constant (Keq); unphosphorylated CusR; 20 mM HEPES pH 7.9, 80 mM KCl, 20 mM MgCl2, 0.8 mM EDTA, 7.5% glycerol, 0.1 mM DTT, 25 C; 0.5 nM probe; native 5% TBE gel at 4 C

For “PcusR probe (pcoA2-cusR intergenic 60-mer)”, the Kd was 25 nM.
